Results: patent publication US20250129140A1, “ANTI-HCMV ANTIBODIES AND ANTIGEN-BINDING FRAGMENTS THEREOF” (ICAHN SCHOOL OF MEDICINE AT MOUNT SINAI, priority 2021, published 2025)

Biological target: MHC class I on ARPE-19 cells (Homo sapiens)
Assay: flow cytometry on ARPE-19 cells infected with AD169R (GFP reporter), 6 dpi, antibody 2 µg/mL, anti-mouse AF647 secondary

Work on α-MHC-1 (W6/32) (antibody) yielded a Q1, percent of cells GFP- and Alexa Fluor 647+ of 86.9% and a Q2, percent of cells GFP+ and Alexa Fluor 647+ of 12.7%.
